From US20260242478A1 (published 2026)

How the values were obtained:
[1] = target: T1, Anti-CD28 scFv (VH - linker 1 - VL) (biotinylated (site not stated)); assay: phage ELISA; biotinylated anti-CD28 scFv on neutravidin plate, wells pre-incubated with soluble CD28 as competitor, anti-M13-HRP detection
T1 construct: Biotinylated and captured on neutravidin-coated plates in the phage panning ELISA

[2] = target: T1, Anti-CD28 scFv (VH - linker 1 - VL); assay: phage ELISA; biotinylated anti-CD28 scFv on neutravidin plate, clonal phage supernatant, anti-M13-HRP detection;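 note: before phage addition, wells were pretreated with soluble CD28 protein in blocking buffer, or with blocking buffer only as the comparison, then phage were added without washing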
[3] = target: anti-CD28 Fab; assay: competition ELISA, peptide titrated 0-100 uM against 1 nM anti-CD28 Fab, plate-bound CD28 as competitor
anti-CD28 Fab, sequence (VH, as listed by the source, chain 1 of 2): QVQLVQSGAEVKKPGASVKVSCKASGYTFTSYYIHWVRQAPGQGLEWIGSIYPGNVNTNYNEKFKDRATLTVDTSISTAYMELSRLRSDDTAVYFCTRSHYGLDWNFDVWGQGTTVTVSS
anti-CD28 Fab, sequence (VL, as listed by the source, chain 2 of 2): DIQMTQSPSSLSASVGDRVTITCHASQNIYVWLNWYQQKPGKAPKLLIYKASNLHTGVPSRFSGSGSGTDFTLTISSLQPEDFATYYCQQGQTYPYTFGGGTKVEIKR

T1 sequence (scFv, as listed by the source): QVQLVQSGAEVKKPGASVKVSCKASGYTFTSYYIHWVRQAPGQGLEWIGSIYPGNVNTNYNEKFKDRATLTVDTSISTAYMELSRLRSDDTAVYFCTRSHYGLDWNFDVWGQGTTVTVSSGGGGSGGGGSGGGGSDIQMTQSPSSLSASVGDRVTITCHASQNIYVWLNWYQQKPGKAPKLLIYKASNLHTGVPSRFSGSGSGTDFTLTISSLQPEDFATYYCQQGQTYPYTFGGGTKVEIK

Binder	CD28 scFv signal in presence of CD28 [1]	CD28 scFv signal [2]	IC50 [3] [µM]
IDWCPIIQGLPCFA (tested as crude clonal phage supernatant) [Phage-432 clonal phage peptide IDWCPIIQGLPCFA]	0.065	0.368	
MYWCPINMWDYCYA (tested as crude clonal phage supernatant) [Phage-422 clonal phage peptide MYWCPINMWDYCYA]	0.088	0.109	
SCAAGASAAWPYCL [Peptide-102]			> 100
SCAAGASYAWAYCL [Peptide-104]			> 100
SCAAGASYAWPYCA [Peptide-106]			76.4
SCAAGASYAAPYCL [Peptide-103]			> 100
SCAAGASYAWPACL [Peptide-105]			13
IYWCPTAMWNRCSA (tested as crude clonal phage supernatant) [Phage-417 clonal phage peptide IYWCPTAMWNRCSA]	0.073	0.817	
MDWCPRDRWADCFN (tested as crude clonal phage supernatant) [Phage-436 clonal phage peptide MDWCPRDRWADCFN]	0.08	1.35	
MDWCPVDRWADCFN (tested as crude clonal phage supernatant) [Phage-437 clonal phage peptide MDWCPVDRWADCFN]	0.315	1.16	
MAWCPADQWHECFN (tested as crude clonal phage supernatant) [Phage-431 clonal phage peptide MAWCPADQWHECFN]	0.456	1.84	
VILCPTTMWNRCFH (tested as crude clonal phage supernatant) [Phage-427 clonal phage peptide VILCPTTMWNRCFH]	0.084	0.072	
IVWCPTTQWNRCAT (tested as crude clonal phage supernatant) [Phage-434 clonal phage peptide IVWCPTTQWNRCAT]	0.083	0.067	
MAWCPWAQFDECLA (tested as crude clonal phage supernatant) [Phage-433 clonal phage peptide MAWCPWAQFDECLA]	0.078	0.071	
MDLCPTAMWNRCFY (tested as crude clonal phage supernatant) [Phage-425 clonal phage peptide MDLCPTAMWNRCFY]	0.084	0.097	
ITQCPSTMWNRCSV (tested as crude clonal phage supernatant) [Phage-424 clonal phage peptide ITQCPSTMWNRCSV]	0.108	0.098	
MNWCPSTMWNRCLT (tested as crude clonal phage supernatant) [Phage-428 clonal phage peptide MNWCPSTMWNRCLT]	0.07	0.065	
MFLCPSAMWNRCFY (tested as crude clonal phage supernatant) [Phage-426 clonal phage peptide MFLCPSAMWNRCFY]	0.114	0.094	
MDWCPRDRWVDCYA (tested as crude clonal phage supernatant) [Phage-435 clonal phage peptide MDWCPRDRWVDCYA]	0.403	1.48	
MYWCPKYMWSECFA (tested as crude clonal phage supernatant) [Phage-418 clonal phage peptide MYWCPKYMWSECFA]	0.099	0.741	
INLCPTPMWNRCWL (tested as crude clonal phage supernatant) [Phage-423 clonal phage peptide INLCPTPMWNRCWL]	0.101	0.103	
